Where “and” joins values, the source holds several entries; their conditions need not be identical. Identical values can stand only once.
Target: the molecule itself
Assay: SEC

B1: PE11 (Rv1169c) esterase of Mycobacterium tuberculosis, recombinant His-tagged (enzyme)
chain: MSFVTTRPDSIGETAANLHEIGVTMSAHDDGVTPLITNVESPAHDLVSIVTSMLFSMHGELYKAIARQAHVIHESFVQTLQTSKTSYWLTELANRAGTST
- stoichiometry N: 4 and 2
